The target of one experiment is T1, GST-Gαi3 (GDP loaded) (rat, UniProt P08753 1-354).
T1 construct: not shown: glutathione S-transferase tag encoded by pGEX-4T-1
Nature of the experiment: GST pulldown with GDP-loaded GST-Gαi3, anti-His immunoblot.

The next experiment addresses T2, His-Gαi3 (GDP-loaded) (UniProt P08753 1-354).
T2 construct: Purified protein, GDP-loaded
Briefly: GST pulldown: GST-GIV-CT on glutathione-agarose beads with 0.01-3 µM His-Gαi3; anti-His band intensities fitted to a single-site hyperbola; three experiments.

T1 sequence (P08753 whole entry): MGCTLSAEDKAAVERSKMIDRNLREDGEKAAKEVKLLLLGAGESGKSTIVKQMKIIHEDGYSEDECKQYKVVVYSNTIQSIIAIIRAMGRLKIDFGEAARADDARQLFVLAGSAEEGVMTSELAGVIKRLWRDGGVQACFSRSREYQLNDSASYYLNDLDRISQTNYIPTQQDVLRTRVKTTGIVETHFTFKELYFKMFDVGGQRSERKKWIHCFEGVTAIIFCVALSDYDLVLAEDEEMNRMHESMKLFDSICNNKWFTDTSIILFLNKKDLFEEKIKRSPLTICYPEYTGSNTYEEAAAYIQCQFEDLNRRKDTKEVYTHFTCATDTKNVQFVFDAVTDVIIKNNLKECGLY
T2 sequence (P08753 whole entry): as above

B1: TAT-GIV-CT-F1685A (peptide)
chain: MRGSHHHHHHGMASMTGGQQMGRDLYDDDDKDRWGSKLGYGRKKRRQRRRGGSTMSGYPYDVPDYAGSMGGSGHSGETLESRHHKIKTGSPGSEVVTLQQALEESNKLTSVQIKSSSQENLLDEVMKSLSVSSDFLGKDKPVSCGLARSVSGKTPGDFYDRRTTKPEFLRPGPRKTEDTYFISSAGKPTPGTQGKIKLVKESSLSRQSKDSNPYATLPRASSVISTAEGTTRRTSIHDFLTKDSRLPISVDSPPAAADSNTTAASNVDKVQESRNSKSRSREQQSS
notes: Recombinant, made in E. coli; GEF-deficient mutant; also called TAT-GIV-CT-FA; FA
With B1, the binding result with GST-Gαi3 (GDP loaded) is recorded as “no binding”.

B2: GST-GIV-CT (amino acids 1660-1870) (other)
chain: ETLESRHHKIKTGSPGSEVVTLQQFLEESNKLTSVQIKSSSQENLLDEVMKSLSVSSDFLGKDKPVSCGLARSVSGKTPGDFYDRRTTKPEFLRPGPRKTEDTYFISSAGKPTPGTQGKIKLVKESSLSRQSKDSNPYATLPRASSVISTAEGTTRRTSIHDFLTKDSRLPISVDSPPAAADSNTTAASNVDKVQESRNSKSRSREQQSS
notes: Immobilised on glutathione-agarose beads; also called GST-tagged GIV-CT peptide; not shown: glutathione S-transferase tag
Take B2: the Kd in the experiment with His-Gαi3 (GDP-loaded) stood at 240 nM.

The values are drawn from patent US20180104307A1 (University of California, published 2018).
